US20140087995A1 (published 2014)
Where two headings read alike, the source gives them in different places. Numbered stars: 1 amine (or outer) side, 2 acyl side, 3 side chain; on linkers, the order of the positions; unused ones are H or OH. Bridge positions count the residues as written; N and C are the ends. Side chains are listed from the residue outwards. Ends that are not written are not given here. * marks the point of attachment. C20 diacid = O=C(O)CCCCCCCCCCCCCCCCCCC(=O)*; γGlu = O=C(O)[C@H](CCC(=O)[*:2])N[*:1]; AEEA = NCCOCCOCC(=O)O

T1: human amylin receptor (amylin 3(a) receptor: human calcitonin receptor plus RAMP-3) (human, UniProt P30988 25-474; O60896 24-148)
T1 construct: whole, on cells; functional assay used the whole cells; also called hAmylin-R; hAmylinR
T1 sequence (looked up) 1: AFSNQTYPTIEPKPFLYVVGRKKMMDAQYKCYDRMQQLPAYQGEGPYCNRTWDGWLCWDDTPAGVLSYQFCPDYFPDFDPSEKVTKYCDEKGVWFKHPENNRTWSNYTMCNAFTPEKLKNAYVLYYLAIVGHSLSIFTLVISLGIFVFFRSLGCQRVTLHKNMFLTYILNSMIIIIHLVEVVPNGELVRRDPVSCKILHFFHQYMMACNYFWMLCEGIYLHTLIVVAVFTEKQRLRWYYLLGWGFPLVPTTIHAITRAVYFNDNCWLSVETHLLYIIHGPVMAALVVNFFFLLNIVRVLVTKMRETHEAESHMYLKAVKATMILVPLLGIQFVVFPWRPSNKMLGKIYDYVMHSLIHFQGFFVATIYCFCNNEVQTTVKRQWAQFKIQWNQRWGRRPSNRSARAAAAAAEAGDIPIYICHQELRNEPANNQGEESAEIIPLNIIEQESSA
T1 sequence (looked up) 2: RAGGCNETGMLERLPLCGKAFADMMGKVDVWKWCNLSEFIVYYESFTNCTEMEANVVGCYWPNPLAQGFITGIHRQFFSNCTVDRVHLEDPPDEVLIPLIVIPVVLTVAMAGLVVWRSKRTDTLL

T2: human calcitonin receptor (human, UniProt P30988 25-474)
T2 sequence (looked up): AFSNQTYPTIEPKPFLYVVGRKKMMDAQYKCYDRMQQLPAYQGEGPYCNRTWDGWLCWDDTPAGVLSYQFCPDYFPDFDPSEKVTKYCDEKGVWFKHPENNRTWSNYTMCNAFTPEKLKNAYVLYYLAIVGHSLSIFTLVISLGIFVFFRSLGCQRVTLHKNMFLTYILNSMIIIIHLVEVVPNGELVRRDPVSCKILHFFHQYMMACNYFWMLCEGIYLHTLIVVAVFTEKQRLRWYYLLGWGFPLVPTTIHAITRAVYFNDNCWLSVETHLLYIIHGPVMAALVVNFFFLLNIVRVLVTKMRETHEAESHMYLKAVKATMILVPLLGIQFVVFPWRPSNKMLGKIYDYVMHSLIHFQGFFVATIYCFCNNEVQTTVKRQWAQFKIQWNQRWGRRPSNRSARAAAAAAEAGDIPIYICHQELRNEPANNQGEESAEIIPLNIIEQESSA

B1: N^ε1-[(4S)-4-carboxy-4-(19-carboxynonadecanoylamino)butanoyl]-[His14,Arg17,Pro21,Pro27,His35]-h-amylin (peptide)
peptide: K([γGlu-C20 diacid])CNTATCATQRLAHFLRHSSPNFGAIPSSTNVGSHTY-NH2
modifications: disulfide 2-7; N-terminus assumed
SMILES: CC[C@H](C)[C@H](NC(=O)[C@H](C)NC(=O)CNC(=O)[C@H](Cc1ccccc1)NC(=O)[C@H](CC(N)=O)NC(=O)[C@@H]1CCCN1C(=O)[C@H](CO)NC(=O)[C@H](CO)NC(=O)[C@H](Cc1c[nH]cn1)NC(=O)[C@H](CCCNC(=N)N)NC(=O)[C@H](CC(C)C)NC(=O)[C@H](Cc1ccccc1)NC(=O)[C@H](Cc1c[nH]cn1)NC(=O)[C@H](C)NC(=O)[C@H](CC(C)C)NC(=O)[C@H](CCCNC(=N)N)NC(=O)[C@H](CCC(N)=O)NC(=O)[C@@H](NC(=O)[C@H](C)NC(=O)[C@@H]1CSSC[C@H](NC(=O)[C@@H](N)CCCCNC(=O)CC[C@H](NC(=O)CCCCCCCCCCCCCCCCCCC(=O)O)C(=O)O)C(=O)N[C@@H](CC(N)=O)C(=O)N[C@@H]([C@@H](C)O)C(=O)N[C@@H](C)C(=O)N[C@@H]([C@@H](C)O)C(=O)N1)[C@@H](C)O)C(=O)N1CCC[C@H]1C(=O)N[C@@H](CO)C(=O)N[C@@H](CO)C(=O)N[C@H](C(=O)N[C@@H](CC(N)=O)C(=O)N[C@H](C(=O)NCC(=O)N[C@@H](CO)C(=O)N[C@@H](Cc1c[nH]cn1)C(=O)N[C@H](C(=O)N[C@@H](Cc1ccc(O)cc1)C(N)=O)[C@@H](C)O)C(C)C)[C@@H](C)O
notes: also called compound 66
B2: N^ε-[(4S)-4-carboxy-4-(19-carboxynonadecanoylamino)butanoyl]Lys[Arg1,Arg17,Pro21,Pro27,His35]-h-amylin (peptide)
peptide: K([γGlu-C20 diacid])RCNTATCATQRLANFLRHSSPNFGAIPSSTNVGSHTY-NH2
modifications: disulfide 3-8; N-terminus assumed
SMILES: CC[C@H](C)[C@H](NC(=O)[C@H](C)NC(=O)CNC(=O)[C@H](Cc1ccccc1)NC(=O)[C@H](CC(N)=O)NC(=O)[C@@H]1CCCN1C(=O)[C@H](CO)NC(=O)[C@H](CO)NC(=O)[C@H](Cc1c[nH]cn1)NC(=O)[C@H](CCCNC(=N)N)NC(=O)[C@H](CC(C)C)NC(=O)[C@H](Cc1ccccc1)NC(=O)[C@H](CC(N)=O)NC(=O)[C@H](C)NC(=O)[C@H](CC(C)C)NC(=O)[C@H](CCCNC(=N)N)NC(=O)[C@H](CCC(N)=O)NC(=O)[C@@H](NC(=O)[C@H](C)NC(=O)[C@@H]1CSSC[C@H](NC(=O)[C@H](CCCNC(=N)N)NC(=O)[C@@H](N)CCCCNC(=O)CC[C@H](NC(=O)CCCCCCCCCCCCCCCCCCC(=O)O)C(=O)O)C(=O)N[C@@H](CC(N)=O)C(=O)N[C@@H]([C@@H](C)O)C(=O)N[C@@H](C)C(=O)N[C@@H]([C@@H](C)O)C(=O)N1)[C@@H](C)O)C(=O)N1CCC[C@H]1C(=O)N[C@@H](CO)C(=O)N[C@@H](CO)C(=O)N[C@H](C(=O)N[C@@H](CC(N)=O)C(=O)N[C@H](C(=O)NCC(=O)N[C@@H](CO)C(=O)N[C@@H](Cc1c[nH]cn1)C(=O)N[C@H](C(=O)N[C@@H](Cc1ccc(O)cc1)C(N)=O)[C@@H](C)O)C(C)C)[C@@H](C)O
notes: N-terminal extension by Lys at position -1; also called compound 44
B3: N^ε-[2-[2-[2-[[(4S)-4-carboxy-4-(19-carboxynonadecanoylamino)butanoyl]amino]ethoxy]ethoxy]acetyl]Lys[Arg1,Arg17,Pro21,Pro27,His35]-h-amylin (peptide)
peptide: K([AEEA-γGlu-C20 diacid])RCNTATCATQRLANFLRHSSPNFGAIPSSTNVGSHTY-NH2
modifications: disulfide 3-8; N-terminus assumed
SMILES: CC[C@H](C)[C@H](NC(=O)[C@H](C)NC(=O)CNC(=O)[C@H](Cc1ccccc1)NC(=O)[C@H](CC(N)=O)NC(=O)[C@@H]1CCCN1C(=O)[C@H](CO)NC(=O)[C@H](CO)NC(=O)[C@H](Cc1c[nH]cn1)NC(=O)[C@H](CCCNC(=N)N)NC(=O)[C@H](CC(C)C)NC(=O)[C@H](Cc1ccccc1)NC(=O)[C@H](CC(N)=O)NC(=O)[C@H](C)NC(=O)[C@H](CC(C)C)NC(=O)[C@H](CCCNC(=N)N)NC(=O)[C@H](CCC(N)=O)NC(=O)[C@@H](NC(=O)[C@H](C)NC(=O)[C@@H]1CSSC[C@H](NC(=O)[C@H](CCCNC(=N)N)NC(=O)[C@@H](N)CCCCNC(=O)COCCOCCNC(=O)CC[C@H](NC(=O)CCCCCCCCCCCCCCCCCCC(=O)O)C(=O)O)C(=O)N[C@@H](CC(N)=O)C(=O)N[C@@H]([C@@H](C)O)C(=O)N[C@@H](C)C(=O)N[C@@H]([C@@H](C)O)C(=O)N1)[C@@H](C)O)C(=O)N1CCC[C@H]1C(=O)N[C@@H](CO)C(=O)N[C@@H](CO)C(=O)N[C@H](C(=O)N[C@@H](CC(N)=O)C(=O)N[C@H](C(=O)NCC(=O)N[C@@H](CO)C(=O)N[C@@H](Cc1c[nH]cn1)C(=O)N[C@H](C(=O)N[C@@H](Cc1ccc(O)cc1)C(N)=O)[C@@H](C)O)C(C)C)[C@@H](C)O
notes: N-terminal extension by Lys at position -1; also called compound 45

What was measured:
[1] = target: T1, human amylin receptor (amylin 3(a) …); assay: SPA competition, displacement of 125I-rat amylin from membranes of BHK cells with human calcitonin receptor + RAMP-3 (Assay V)
Method: (§1) The binding assay was performed using scintillation proximity assay (SPA) beads (RPNQ0001) from PerkinElmer and cell membranes from the Amylin 3(a)/CRE-luc cells (as described in Assay (II)) were used. Membranes were prepared in the following way; the cells were rinsed with PBS and incubated with Versene for approximately 5 min before harvesting. The cells were flushed with PBS and the cell-suspension was centrifuged for 5 min at 1000 rpm. Cells were homogenized (ultrathurrax) in a buffer containing 20 mM Na-HEPES and 10 mM EDTA (pH 7.4) and centrifuged at 20.000 rpm for 15 min. The resulting pellet was resuspended, homogenized and centrifuged (20.000 rpm, 15 min) in a buffer containing 20 mM Na-HEPES and 0.1 mM EDTA (pH 7.4, buffer 2). The resulting pellet was resuspended in buffer 2 and protein concentration was measured (BCA protein Assay, Pierce). The homogenate was kept cold during the whole procedure. The membranes were kept at −80° C. until use. The assay was performed in a 384 well Optiplate (PerkinElmer) in a total volume of 40 ul. Membranes were mixed with SPA beads. Final concentration of membranes 35 ng/μL final and SPA beads was 0.05 mg/well. Test-compounds were dissolved in DMSO and further diluted in assay buffer (50 mM Hepes, pH 7.4, 1 mM CaCl2, 5 mM MgCl₂, 0.1% OA and 0.02% Tween20). […] The final mixture was incubated with shaking at 400 rpm for 120 min at 25° C. prior to centrifugation (1500 rpm, 10 min). Samples were analyzed on TopCounter™ (Packard). The IC₅₀ was calculated using (one site binding competition analysis) GraphPad Prism5 as a measure of receptor affinity.

[2] = target: T1, human amylin receptor (amylin 3(a) …); assay: as above; remark: listed apart in the source
Method: as §1

[3] = target: T2, human calcitonin receptor; assay: cell-based or functional assay
[4] = target: T1, human amylin receptor (amylin 3(a) …); assay: cell-based or functional assay
[5] = target: T2, human calcitonin receptor; assay: cell-based or functional assay; remark: listed apart in the source
[6] = target: T1, human amylin receptor (amylin 3(a) …); assay: cell-based or functional assay; remark: listed apart in the source

Row | IC50 [1] | IC50 [2] | hCTR funct. EC50 (pM) [3] | Ratio hCT/hAmylin funct. [4] | hAmylin-R funct. EC50 (pM) [4] | hCTR funct. EC50 (pM) [5] | Ratio hCT/hAmylin funct. [6] | hAmylin-R funct. EC50 (pM) [6] | Binder
1 | 0.396 nM | 0.396 nM | 542 pM | 20.1 | 27 pM | 542 pM | 20.1 | 27 pM | B1
2 | 0.275 nM | 0.275 nM | 4750 pM | 24 | 198 pM | 4750 pM | 24 | 198 pM | B2
3 | 0.552 nM | 0.552 nM | 10100 pM | 17 | 594 pM | 10100 pM | 17 | 594 pM | B3
